This data set deals with the molecule itself. Kind of data set: SEC.

Experimental findings from article PMC11238716 (ACS Medicinal Chemistry Letters, 2024) are described below.

B1: 6 × HisMBP-SREBP-1a (1–198) (domain or fragment, human, UniProt P36956-1 1-198, looked up)
chain: MDEPPFSEAALEQALGEPCDLDAALLTDIEDMLQLINNQDSDFPGLFDPPYAGSGAGGTDPASPDTSSPGSLSPPPATLSSSLEAFLSGPQAAPSPLSPPQPAPTPLKMYPSMPAFSPGPGIKEESVPLSILQTPTPQPLPGALLPQSFPAPAPPQFSSTPVLGYPSPPGGFSTGSPPGNTQQPLPGLPLASPPGVPP
In the case of B1, the binding result is listed as “binds”.
